The chains are these.
B1: Transcription factor NRM1 (Saccharomyces cerevisiae), P53718 (parent)
chain: MSIMKQRLPLGEFSSSKINKLAIANIADASEPRNHGENNVGTVCLPSIKSLMVSPEVYENTKSLPVPLMRSSGGGMACASKSSCQDGISTKTTSRDYSELSKKLQIRLQFAYYKYKTKQTDKNFTDLKSKHSITRPSKVATHSKSEPLTRRRKLVLSQGHYKTPARSKIKTPSSICSHDNTSSFTSFRGVSESSSTTADMNVADTTTPIRNNINTKHSNSHNRTLYQRQETPTSIKAAKSLIHLFTSNQ

In this assay the parent is B1. The settings on record: with rad53_yeast RAD53, P22216.
Chain of rad53_yeast RAD53, P22216 (P22216 whole entry): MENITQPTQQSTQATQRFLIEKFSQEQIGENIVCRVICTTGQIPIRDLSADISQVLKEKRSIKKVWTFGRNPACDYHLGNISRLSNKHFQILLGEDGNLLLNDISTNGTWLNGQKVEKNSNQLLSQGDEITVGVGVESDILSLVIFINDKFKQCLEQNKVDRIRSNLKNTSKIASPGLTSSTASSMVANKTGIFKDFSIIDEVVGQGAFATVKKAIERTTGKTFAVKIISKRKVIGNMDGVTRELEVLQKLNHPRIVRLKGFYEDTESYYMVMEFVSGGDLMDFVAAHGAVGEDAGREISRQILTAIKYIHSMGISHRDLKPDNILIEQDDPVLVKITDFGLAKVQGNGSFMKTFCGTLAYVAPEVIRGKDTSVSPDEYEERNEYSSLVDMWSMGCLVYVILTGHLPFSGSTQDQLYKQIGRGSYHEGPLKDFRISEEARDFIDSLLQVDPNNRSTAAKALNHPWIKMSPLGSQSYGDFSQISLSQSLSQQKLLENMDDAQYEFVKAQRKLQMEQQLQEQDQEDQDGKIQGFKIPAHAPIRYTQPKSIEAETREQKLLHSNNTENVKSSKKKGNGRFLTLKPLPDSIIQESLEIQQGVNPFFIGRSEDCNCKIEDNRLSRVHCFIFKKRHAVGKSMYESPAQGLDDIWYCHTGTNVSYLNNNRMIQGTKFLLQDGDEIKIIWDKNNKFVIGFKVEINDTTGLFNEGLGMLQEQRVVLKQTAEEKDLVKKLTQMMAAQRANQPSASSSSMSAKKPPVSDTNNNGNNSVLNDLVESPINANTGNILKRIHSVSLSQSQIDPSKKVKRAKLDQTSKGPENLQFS
Regarding T42A;S47A;S145A;S240A, the “effect of a mutation on the interaction” value is reported as “decreasing interaction”.

Values taken from IntAct's records for PubMed 22333915.
